Measured values: patent US20150344570A1 (published 2015)

T1: FcγRIIa R (FcγRIIa allotype with Arg at position 131), extracellular domain with C-terminal His tag (human, UniProt P12318 34-217)
T1 construct: extracellular domain; made in FreeStyle293 cells; analyte in the Biacore assay; also called FcγRIIa type R; 2aR
T1 sequence (looked up): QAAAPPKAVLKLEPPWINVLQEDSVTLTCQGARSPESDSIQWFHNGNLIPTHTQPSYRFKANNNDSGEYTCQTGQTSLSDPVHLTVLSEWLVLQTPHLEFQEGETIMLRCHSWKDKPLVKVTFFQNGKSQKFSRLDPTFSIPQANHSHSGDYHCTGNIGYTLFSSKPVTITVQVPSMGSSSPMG

T2: FcγRIIb, extracellular domain with C-terminal His tag (human, UniProt P31994 43-217)
T2 construct: extracellular domain; made in FreeStyle293 cells; analyte in the Biacore assay; also called 2b; FcgRIIb
T2 sequence (looked up): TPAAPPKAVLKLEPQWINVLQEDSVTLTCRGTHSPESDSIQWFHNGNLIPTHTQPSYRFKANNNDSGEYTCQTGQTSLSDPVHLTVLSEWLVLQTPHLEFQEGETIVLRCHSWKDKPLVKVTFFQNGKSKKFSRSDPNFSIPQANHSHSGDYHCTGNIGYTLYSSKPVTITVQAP

B1: GpH7-A5/GpH7-B3 variant E333_09D/GpL16-k0 (antibody, human IgG1, kappa)
heavy 1: not shown
heavy 2: not shown
light: DIVMTQSPLSLPVTPGEPASISCQASESLVHSNRNTYLHWYLQKPGQSPQLLIYKVSNRFSGVPDRFSGSGSGTDFTLKISRVEAEDVGVYYCSQNTHVPPTFGQGTKVEIERTVAAPSVFIFPPSDEQLKSGTASVVCLLNNFYPREAKVQWKVDNALQSGNSQESVTEQDSKDSTYSLSSTLTLSKADYEKHKVYACEVTHQGLSSPVTKSFNRGEC
notes: heterodimerized IgG1, mutation in one H chain only; also called He Ab
B2: GpH7-A5/GpH7-B3 variant I336_18N/GpL16-k0 (antibody, human IgG1, kappa)
heavy 1: not shown
heavy 2: not shown
light: DIVMTQSPLSLPVTPGEPASISCQASESLVHSNRNTYLHWYLQKPGQSPQLLIYKVSNRFSGVPDRFSGSGSGTDFTLKISRVEAEDVGVYYCSQNTHVPPTFGQGTKVEIERTVAAPSVFIFPPSDEQLKSGTASVVCLLNNFYPREAKVQWKVDNALQSGNSQESVTEQDSKDSTYSLSSTLTLSKADYEKHKVYACEVTHQGLSSPVTKSFNRGEC
notes: as for B1
B3: GpH7-A5/GpH7-B3 variant N325_15Y/GpL16-k0 (antibody, human IgG1, kappa)
heavy 1: not shown
heavy 2: not shown
light: DIVMTQSPLSLPVTPGEPASISCQASESLVHSNRNTYLHWYLQKPGQSPQLLIYKVSNRFSGVPDRFSGSGSGTDFTLKISRVEAEDVGVYYCSQNTHVPPTFGQGTKVEIERTVAAPSVFIFPPSDEQLKSGTASVVCLLNNFYPREAKVQWKVDNALQSGNSQESVTEQDSKDSTYSLSSTLTLSKADYEKHKVYACEVTHQGLSSPVTKSFNRGEC
notes: as for B1
B4: GpH7-A5/GpH7-B3 variant H268_11K/GpL16-k0 (antibody, human IgG1, kappa)
heavy 1: not shown
heavy 2: not shown
light: DIVMTQSPLSLPVTPGEPASISCQASESLVHSNRNTYLHWYLQKPGQSPQLLIYKVSNRFSGVPDRFSGSGSGTDFTLKISRVEAEDVGVYYCSQNTHVPPTFGQGTKVEIERTVAAPSVFIFPPSDEQLKSGTASVVCLLNNFYPREAKVQWKVDNALQSGNSQESVTEQDSKDSTYSLSSTLTLSKADYEKHKVYACEVTHQGLSSPVTKSFNRGEC
notes: as for B1
B5: GpH7-A5/GpH7-B3 variant L234_04F/GpL16-k0 (antibody, human IgG1, kappa)
heavy 1: not shown
heavy 2: not shown
light: DIVMTQSPLSLPVTPGEPASISCQASESLVHSNRNTYLHWYLQKPGQSPQLLIYKVSNRFSGVPDRFSGSGSGTDFTLKISRVEAEDVGVYYCSQNTHVPPTFGQGTKVEIERTVAAPSVFIFPPSDEQLKSGTASVVCLLNNFYPREAKVQWKVDNALQSGNSQESVTEQDSKDSTYSLSSTLTLSKADYEKHKVYACEVTHQGLSSPVTKSFNRGEC
notes: as for B1
B6: GpH7-A5/GpH7-B3 variant E333_15Y/GpL16-k0 (antibody, human IgG1, kappa)
heavy 1: not shown
heavy 2: not shown
light: DIVMTQSPLSLPVTPGEPASISCQASESLVHSNRNTYLHWYLQKPGQSPQLLIYKVSNRFSGVPDRFSGSGSGTDFTLKISRVEAEDVGVYYCSQNTHVPPTFGQGTKVEIERTVAAPSVFIFPPSDEQLKSGTASVVCLLNNFYPREAKVQWKVDNALQSGNSQESVTEQDSKDSTYSLSSTLTLSKADYEKHKVYACEVTHQGLSSPVTKSFNRGEC
notes: as for B1
B7: GpH7-A5/GpH7-B3 variant P331_02A/GpL16-k0 (antibody, human IgG1, kappa)
heavy 1: not shown
heavy 2: not shown
light: DIVMTQSPLSLPVTPGEPASISCQASESLVHSNRNTYLHWYLQKPGQSPQLLIYKVSNRFSGVPDRFSGSGSGTDFTLKISRVEAEDVGVYYCSQNTHVPPTFGQGTKVEIERTVAAPSVFIFPPSDEQLKSGTASVVCLLNNFYPREAKVQWKVDNALQSGNSQESVTEQDSKDSTYSLSSTLTLSKADYEKHKVYACEVTHQGLSSPVTKSFNRGEC
notes: as for B1
B8: GpH7-A5/GpH7-B3 variant K326_12R/GpL16-k0 (antibody, human IgG1, kappa)
heavy 1: not shown
heavy 2: not shown
light: DIVMTQSPLSLPVTPGEPASISCQASESLVHSNRNTYLHWYLQKPGQSPQLLIYKVSNRFSGVPDRFSGSGSGTDFTLKISRVEAEDVGVYYCSQNTHVPPTFGQGTKVEIERTVAAPSVFIFPPSDEQLKSGTASVVCLLNNFYPREAKVQWKVDNALQSGNSQESVTEQDSKDSTYSLSSTLTLSKADYEKHKVYACEVTHQGLSSPVTKSFNRGEC
notes: as for B1
B9: GpH7-A5/GpH7-B3 variant P331_13S/GpL16-k0 (antibody, human IgG1, kappa)
heavy 1: not shown
heavy 2: not shown
light: DIVMTQSPLSLPVTPGEPASISCQASESLVHSNRNTYLHWYLQKPGQSPQLLIYKVSNRFSGVPDRFSGSGSGTDFTLKISRVEAEDVGVYYCSQNTHVPPTFGQGTKVEIERTVAAPSVFIFPPSDEQLKSGTASVVCLLNNFYPREAKVQWKVDNALQSGNSQESVTEQDSKDSTYSLSSTLTLSKADYEKHKVYACEVTHQGLSSPVTKSFNRGEC
notes: as for B1
B10: GpH7-A5/GpH7-B3 variant N325_10E/GpL16-k0 (antibody, human IgG1, kappa)
heavy 1: not shown
heavy 2: not shown
light: DIVMTQSPLSLPVTPGEPASISCQASESLVHSNRNTYLHWYLQKPGQSPQLLIYKVSNRFSGVPDRFSGSGSGTDFTLKISRVEAEDVGVYYCSQNTHVPPTFGQGTKVEIERTVAAPSVFIFPPSDEQLKSGTASVVCLLNNFYPREAKVQWKVDNALQSGNSQESVTEQDSKDSTYSLSSTLTLSKADYEKHKVYACEVTHQGLSSPVTKSFNRGEC
notes: as for B1
B11: GpH7-A5/GpH7-B3 variant N325_14T/GpL16-k0 (antibody, human IgG1, kappa)
heavy 1: not shown
heavy 2: not shown
light: DIVMTQSPLSLPVTPGEPASISCQASESLVHSNRNTYLHWYLQKPGQSPQLLIYKVSNRFSGVPDRFSGSGSGTDFTLKISRVEAEDVGVYYCSQNTHVPPTFGQGTKVEIERTVAAPSVFIFPPSDEQLKSGTASVVCLLNNFYPREAKVQWKVDNALQSGNSQESVTEQDSKDSTYSLSSTLTLSKADYEKHKVYACEVTHQGLSSPVTKSFNRGEC
notes: as for B1
B12: GpH7-A5/GpH7-B3 variant P331_09D/GpL16-k0 (antibody, human IgG1, kappa)
heavy 1: not shown
heavy 2: not shown
light: DIVMTQSPLSLPVTPGEPASISCQASESLVHSNRNTYLHWYLQKPGQSPQLLIYKVSNRFSGVPDRFSGSGSGTDFTLKISRVEAEDVGVYYCSQNTHVPPTFGQGTKVEIERTVAAPSVFIFPPSDEQLKSGTASVVCLLNNFYPREAKVQWKVDNALQSGNSQESVTEQDSKDSTYSLSSTLTLSKADYEKHKVYACEVTHQGLSSPVTKSFNRGEC
notes: as for B1
B13: GpH7-A5/GpH7-B3 variant P331_08L/GpL16-k0 (antibody, human IgG1, kappa)
heavy 1: not shown
heavy 2: not shown
light: DIVMTQSPLSLPVTPGEPASISCQASESLVHSNRNTYLHWYLQKPGQSPQLLIYKVSNRFSGVPDRFSGSGSGTDFTLKISRVEAEDVGVYYCSQNTHVPPTFGQGTKVEIERTVAAPSVFIFPPSDEQLKSGTASVVCLLNNFYPREAKVQWKVDNALQSGNSQESVTEQDSKDSTYSLSSTLTLSKADYEKHKVYACEVTHQGLSSPVTKSFNRGEC
notes: as for B1
B14: GpH7-A5/GpH7-B3 variant Q295_06M/GpL16-k0 (antibody, human IgG1, kappa)
heavy 1: not shown
heavy 2: not shown
light: DIVMTQSPLSLPVTPGEPASISCQASESLVHSNRNTYLHWYLQKPGQSPQLLIYKVSNRFSGVPDRFSGSGSGTDFTLKISRVEAEDVGVYYCSQNTHVPPTFGQGTKVEIERTVAAPSVFIFPPSDEQLKSGTASVVCLLNNFYPREAKVQWKVDNALQSGNSQESVTEQDSKDSTYSLSSTLTLSKADYEKHKVYACEVTHQGLSSPVTKSFNRGEC
notes: as for B1
B15: GpH7-A5/GpH7-B3 variant P331_14T/GpL16-k0 (antibody, human IgG1, kappa)
heavy 1: not shown
heavy 2: not shown
light: DIVMTQSPLSLPVTPGEPASISCQASESLVHSNRNTYLHWYLQKPGQSPQLLIYKVSNRFSGVPDRFSGSGSGTDFTLKISRVEAEDVGVYYCSQNTHVPPTFGQGTKVEIERTVAAPSVFIFPPSDEQLKSGTASVVCLLNNFYPREAKVQWKVDNALQSGNSQESVTEQDSKDSTYSLSSTLTLSKADYEKHKVYACEVTHQGLSSPVTKSFNRGEC
notes: as for B1
B16: GpH7-A5/GpH7-B3 variant H268_12R/GpL16-k0 (antibody, human IgG1, kappa)
heavy 1: not shown
heavy 2: not shown
light: DIVMTQSPLSLPVTPGEPASISCQASESLVHSNRNTYLHWYLQKPGQSPQLLIYKVSNRFSGVPDRFSGSGSGTDFTLKISRVEAEDVGVYYCSQNTHVPPTFGQGTKVEIERTVAAPSVFIFPPSDEQLKSGTASVVCLLNNFYPREAKVQWKVDNALQSGNSQESVTEQDSKDSTYSLSSTLTLSKADYEKHKVYACEVTHQGLSSPVTKSFNRGEC
notes: as for B1
B17: GpH7-A5/GpH7-B3 variant P331_18N/GpL16-k0 (antibody, human IgG1, kappa)
heavy 1: not shown
heavy 2: not shown
light: DIVMTQSPLSLPVTPGEPASISCQASESLVHSNRNTYLHWYLQKPGQSPQLLIYKVSNRFSGVPDRFSGSGSGTDFTLKISRVEAEDVGVYYCSQNTHVPPTFGQGTKVEIERTVAAPSVFIFPPSDEQLKSGTASVVCLLNNFYPREAKVQWKVDNALQSGNSQESVTEQDSKDSTYSLSSTLTLSKADYEKHKVYACEVTHQGLSSPVTKSFNRGEC
notes: as for B1

How the values were obtained:
[1] = biological target: T1, FcγRIIa R (FcγRIIa allotype with Arg at …); test: SPR (Biacore), antibody captured, FcγR analyte; vs GpH7-A5/GpH7-B3/GpL16-k0 = 100
Procedure: (§1) The heterodimerized antibodies He Abs in which one of the H chains was introduced with an alteration were assayed for their binding activities to each activating FcγR and inhibitory FcγR according to the method described in Example 4. […] The activating FcγRs in FIGS. 26, 27, 28, and 29 are FcγRIa, FcγRIIa (R), FcγRIIa (H), and FcγRIIIa, respectively.
(§2) Analysis of interaction between objective antibody and the FcγR was carried out using Biacore T100 (GE Healthcare). HBS-EP+ (GE Healthcare) was used as the running buffer, and the measurement temperature was set to 25° C. Chips produced by immobilizing the antigen peptide by the amine coupling method to a Series S Sencor Chip CM5 (GE Healthcare), or alternatively, chips produced by allowing preliminarily biotinylated antigen peptides to interact with and immobilize onto a Series S Sensor Chip SA (certified) (GE Healthcare) were used. Antibodies of interest were captured onto an antigen peptide-immobilized chip, and allowed to interact to each FcγR diluted with running buffer. To regenerate and repeatedly use the chip, the antibodies captured on the chip were washed off by reacting 10 mM glycine-HCl, pH 1.5.

[2] = biological target: T2, FcγRIIb, extracellular domain with …; test: as above
Procedure: as §1, §2

Binder | He/Con_2aR [1] | He/Con_2b [2]
B1 | 103 relative (HeCon Ab = 100) | 94.3 relative (HeCon Ab = 100)
B2 | 104 relative (HeCon Ab = 100) | 97.6 relative (HeCon Ab = 100)
B3 | 101 relative (HeCon Ab = 100) | 99.5 relative (HeCon Ab = 100)
B4 | 100 relative (HeCon Ab = 100) | 83 relative (HeCon Ab = 100)
B5 | 104 relative (HeCon Ab = 100) | 99.8 relative (HeCon Ab = 100)
B6 | 101 relative (HeCon Ab = 100) | 94.4 relative (HeCon Ab = 100)
B7 | 106 relative (HeCon Ab = 100) | 99.5 relative (HeCon Ab = 100)
B8 | 103 relative (HeCon Ab = 100) | 89.2 relative (HeCon Ab = 100)
B9 | 105 relative (HeCon Ab = 100) | 96.8 relative (HeCon Ab = 100)
B10 | 105 relative (HeCon Ab = 100) | 95.9 relative (HeCon Ab = 100)
B11 | 105 relative (HeCon Ab = 100) | 91.6 relative (HeCon Ab = 100)
B12 | 102 relative (HeCon Ab = 100) | 94.3 relative (HeCon Ab = 100)
B13 | 102 relative (HeCon Ab = 100) | 95.7 relative (HeCon Ab = 100)
B14 | 102 relative (HeCon Ab = 100) | 90.4 relative (HeCon Ab = 100)
B15 | 104 relative (HeCon Ab = 100) | 99.8 relative (HeCon Ab = 100)
B16 | 105 relative (HeCon Ab = 100) | 89.8 relative (HeCon Ab = 100)
B17 | 105 relative (HeCon Ab = 100) | 99.2 relative (HeCon Ab = 100)
